{
  "source": "paper PMC6150290",
  "assay_in_all_cases": "EMSA",
  "settings_in_all_cases": "EMSA: 0.5 nM DNA duplex, 20 uL, 10 mM Tris-HCl pH 7.6, 5 mM DTT, 10% (component cut off in material), no NaCl; temperature not in material",
  "key": {"[1]": {"test_system": "C145S hAGT (human)"}, "[2]": {"test_system": "OGT (wild type) (Escherichia coli)"}, "[3]": {"test_system": "S134P OGT (Escherichia coli)"}},
  "data": [
    {"substance": "Control (G-C)", "values": [
      {"measurement": "Kd", "setting": "[1]", "result": 10.6, "unit": "µM"},
      {"measurement": "Kd", "setting": "[2]", "result": 1.23, "unit": "µM"},
      {"measurement": "Kd", "setting": "[3]", "result": 0.86, "unit": "µM"}
    ]}
  ]
}
